This is an account of results in US9012398B2.

For the experiment, the target named is human GLP-1 receptor (human) (UniProt P43220).

“N-ε^27-{2-(2-(2-(2-[2-(2-(4-(hexadecanoylamino)-4(S)- carboxybutyrylamino)ethoxy)ethoxy)acetylamino)ethoxy)ethoxy)acetyl} [Leu^14,28,Lys^27]Exendin-4(1-39)amide (from UniProt P26349) (peptide)” had a GLP1cAMPma (3693) [EC50 (nM)] Mean Value of 0.19 nM.

In turn, “N-ε^20-{2-(2-(2-(2-[2-(2-(4-(hexadecanoylamino)-4- carboxybutyrylamino)ethoxy)ethoxy]acetylamino)ethoxy)ethoxy) acetyl)}-[Leu^14,Gln^28,Lys^20]Exendin-4-amide (from UniProt P26349) (peptide)” came in with a GLP1cAMPma (3693) [EC50 (nM)] Mean Value of 0.023 nM. The substance “N-ε^28-[2-(2-[2-(2-[2-(2-[4-hexadecanoylamino-4(S)- carboxybutyrylamino]ethoxy)ethoxy]acetylamino)ethoxy]ethoxy)acetyl] [alfa-Me-Phe^6,Arg^12,Val^27,Lys^28,Ala^29]Exendin-4-(1-39)-amide (from UniProt P26349) (peptide)” came in with a GLP1cAMPma (3693) [EC50 (nM)] Mean Value of 0.052 nM.

For “N-ε^27-2-(2-(2-(2-(2-(2-(4-(Octadecanoylamino)-4(S)- carboxybutyrylamino)ethoxy)ethoxy)acetylamino)ethoxy) ethoxy)acetyl[Arg^12,Leu^14,Lys^27,Ala^29]Exendin-4-(1-39)-amide (from UniProt P26349) (peptide)”, the GLP1cAMPma (3693) [EC50 (nM)] Mean Value was determined as 0.24 nM. Under “N-ε^27-(2-(2-(2-(2-(2-(2-(17-carboxyheptadecanoylamino-4(S)- carboxybutyrylamino])ethoxy)ethoxy)acetylamino)ethoxy)ethoxy) acetyl)[Leu^14,Arg^12,Lys^27]Exendin-4(1-39)amide (from UniProt P26349) (peptide)” stands 0.52 nM; under “N-ε^20-{2-(2-(2-(2-[2-(2-(4-(hexadecanoylamino)-4- carboxybutyrylamino)ethoxy)ethoxy]acetylamino)ethoxy)ethoxy)acetyl)}- [Gln^12,Leu^14,Gln^28,Lys^20]Exendin-4-amide (from UniProt P26349) (peptide)”, 0.021 nM; under “N-ε^28-{2-(2-(2-(2-[2-(2-(4-(hexadecanoylamino)-4- carboxybutyrylamino)ethoxy)ethoxy]acetylamino)ethoxy)ethoxy) acetyl)}-[Leu^14,Lys^20]Exendin-4-amide (from UniProt P26349) (peptide)”, 0.011 nM. “N-ε^14-(2-(2-(2-(2-(2-(2-(17- carboxyheptadecanoylamino)ethoxy)ethoxy)acetylamino)ethoxy) ethoxy)acetyl[Arg^12,Lys^14,Val^27,Arg^28]Exendin-4-(1-39)-amide (from UniProt P26349) (peptide)”: the GLP1cAMPma (3693) [EC50 (nM)] Mean Value stood at 3.65 nM. Regarding “N-ε^20-(2-(2-(2-(2-(2-(2-(17- carboxyheptadecanoylamino)ethoxy)ethoxy)acetylamino)ethoxy) ethoxy)acetyl)[Arg12,Leu^14,Arg^27,Gln^28,Lys^20]Exendin-4 (1-39)amide (from UniProt P26349) (peptide)”, the GLP1cAMPma (3693) [EC50 (nM)] Mean Value was found to be 5.45 nM. On to “N-ε^27-[2-(2-[2-(2-[2-(2-[4-hexadecanoylamino-4(S)- carboxybutyrylamino]ethoxy)ethoxy]acetylamino)ethoxy]ethoxy)acetyl] [Arg^12,Leu^14,Lys^27]Exendin-4(1-39)amide (from UniProt P26349) (peptide)”, for which the GLP1cAMPma (3693) [EC50 (nM)] Mean Value turned out to be 0.007 nM. For “N-ε^27-2-(2-2-(2-(2-(2-(4-(Hexadecanoylamino)-4(S)- carboxybutyrylamino)ethoxy)ethoxy)acetylamino)ethoxy) ethoxy)acetyl[Arg^12,Leu^14,Lys^27,Leu^28]Exendin-4-(1-39)-peptide amide (from UniProt P26349)”, the GLP1cAMPma (3693) [EC50 (nM)] Mean Value is 0.093 nM. The substance “N-ε^12-[2-(2-[2-(2-[2-(2-[4-(hexadecanoylamino)-4(S)- carboxybutyrylamino]ethoxy)ethoxy]acetylamino)ethoxy]ethoxy)acetyl] [Lys^12,Leu^14,Arg^27,Gln^28]Exendin-4-(1-39)-amide (from UniProt P26349) (peptide)” returned a GLP1cAMPma (3693) [EC50 (nM)] Mean Value of 0.006 nM.

For the substance “N-ε^28-(2-(2-(2-(2-(2-(2-(2-(2-(2- (Octadecanoylamino)ethoxy)ethoxy)acetylamino)ethoxy)ethoxy)acetyl- amino)ethoxy)ethoxy)acetyl))[Arg^12,Val^27,Lys^28]Exendin-4(1-39)amide (from UniProt P26349) (peptide)”, the GLP1cAMPma (3693) [EC50 (nM)] Mean Value came to 0.041 nM. The figure for “N-ε^34-(2-(2-(2-(16-tetrazoylhexadecanoylamino-4(S)- carboxybutyrylamino)ethoxy)ethoxy(acetyl)[Leu^14,Arg^12,27, Lys^34]Exendin-4(1-39)amide (from UniProt P26349) (peptide)” is 0.61 nM; for “N-ε^27-(2-(2-(2-(2-(2-(2-(2-(2-(2- (Octadecanoylamino)ethoxy)ethoxy)acetylamino)ethoxy)ethoxy)acetyl- amino)ethoxy)ethoxy)acetyl)[Arg^12,Leu^14,Lys^27,Ala^29]Exendin-4-(1- 39)-amide (from UniProt P26349) (peptide)” it is 0.08 nM; for “N-ε^20-[2-(2-[2-(2-[2-(2-[4-(17-Carboxyheptadecanoylamino)-4(S)- carboxybutyrylamino]ethoxy)ethoxy]acetylamino)ethoxy]ethoxy)acetyl] [Imidazoylpropionyl^1;Gin^28,Lys^20]exendin-4(1-39)amide (from UniProt P26349) (peptide)” it is 2.18 nM.

For “N-ε^20-{2-(2-(2-(2-[2-(2-(4-(hexadecanoylamino)-4- carboxybutyrylamino)ethoxy)ethoxy]acetylamino)ethoxy)ethoxy) acetyl)}-[Gln^28,Lys^20]Exendin-4-amide (from UniProt P26349) (peptide)”, the GLP1cAMPma (3693) [EC50 (nM)] Mean Value is 0.033 nM.
